In patent publication US20260022175A1 (Chugai, published 2026):
Substitutions are numbered along the chain they refer to.

T1: human FcγRIIb extracellular domain (human, UniProt P31994 43-217)
T1 construct: extracellular domain; also called hFcγR IIb
T1 sequence (looked up): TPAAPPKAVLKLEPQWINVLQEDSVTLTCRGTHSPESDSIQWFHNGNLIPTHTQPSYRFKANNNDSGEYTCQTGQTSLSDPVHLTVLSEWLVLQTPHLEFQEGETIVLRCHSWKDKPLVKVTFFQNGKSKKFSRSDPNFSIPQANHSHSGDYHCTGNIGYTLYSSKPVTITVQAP

T2: hFcγRIIaH on hFcγRIIaH-expressing Jurkat cells (human, UniProt P12318 34-317)
T2 sequence (looked up): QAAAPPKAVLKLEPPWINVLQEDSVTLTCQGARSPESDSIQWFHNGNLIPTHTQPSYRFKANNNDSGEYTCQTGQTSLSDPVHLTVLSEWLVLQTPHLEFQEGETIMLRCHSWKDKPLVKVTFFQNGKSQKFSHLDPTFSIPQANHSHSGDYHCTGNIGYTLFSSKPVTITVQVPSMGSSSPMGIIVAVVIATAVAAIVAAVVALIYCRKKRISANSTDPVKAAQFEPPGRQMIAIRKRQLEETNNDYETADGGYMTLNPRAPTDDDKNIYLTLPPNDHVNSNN

T3: human FcγRIIa H extracellular domain (human, UniProt P12318 34-217)
T3 construct: extracellular domain; also called hFcγR IIa H
T3 sequence (looked up): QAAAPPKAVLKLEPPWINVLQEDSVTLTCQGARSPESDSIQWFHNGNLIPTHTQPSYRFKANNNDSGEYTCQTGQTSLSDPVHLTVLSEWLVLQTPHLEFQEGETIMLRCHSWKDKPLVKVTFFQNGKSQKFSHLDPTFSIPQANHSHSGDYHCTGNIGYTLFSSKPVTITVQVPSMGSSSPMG

T4: human FcγRIIa R extracellular domain (human, UniProt P12318 34-217)
T4 construct: extracellular domain; also called hFcγR IIa R
T4 sequence (looked up): T3 sequence (looked up) with H134R

B1: H240-Kn120/L73-k0//H240-Hl068/L73-k0 (antibody, human IgG1, kappa)
heavy 1: QDQLVQSGAEVKKPGASVKVSCKASGFNIKDTYIQWVRQAPGQGLEWMGRIDPLRKQTKYREKFEGRVTITADTSTNTAYMELSSLRSEDTAVYYCVRSGREFDYWGQGTLVTVSSASTKGPSVFPLAPSSKSTSGGTAALGCLVKDYFPEPVTVSWNSGALTSGVHTFPAVLQSSGLYSLSSVVTVPSSSLGTQTYICNVNHKPSNTKVDKKVEPKSCDKTHTCPPCPAPEYYWGPMVFLFPPKPKDTLMISRTPEVTCVVVDVSDEDPEVKFNWYVDGVEVHNAKTKPREEQYNATYRVVSVLTVLHQDWLNGKEYKCKVSNKDLPAPIEKTISKAKGQPREPQVCTLPPSRDELTKNQVSLWCLVKGFYPSDIAVEWESNGQPENNYKTTPPVLDSDGSFFLYSKLTVDKSRWQQGNVFSCSVMHEALHNHYTQKSLSLSP
heavy 2: QDQLVQSGAEVKKPGASVKVSCKASGFNIKDTYIQWVRQAPGQGLEWMGRIDPLRKQTKYREKFEGRVTITADTSTNTAYMELSSLRSEDTAVYYCVRSGREFDYWGQGTLVTVSSASTKGPSVFPLAPSSKSTSGGTAALGCLVKDYFPEPVTVSWNSGALTSGVHTFPAVLQSSGLYSLSSVVTVPSSSLGTQTYICNVNHKPSNTKVDKKVEPKSCDKTHTCPPCPAPELLGGPSVFLFPPKPKDTLMISRTPEVTCVVVDVSHEEPEVKFNWYVDGVEVHNAKTKPREEQYNSTYRVVSVLTVLHQDWLNGKEYKCKVSNDALPKPIEETISKAKGQPREPQVYTLPPSRCELTKNQVSLSCAVKGFYPSDIAVEWESNGQPENNYKTTPPVLDSDGSFFLVSKLTVDKSRWQQGNVFSCSVMHEALHNHYTQKSLSLSP
light: DIQMTQSPSSLSASVGDRVTITCRASQDIHKYIAWYQQKPGQAPRLLIQYTSTLQPGVPSRFSGSGSGTDYTFTISSLQPEDIATYYCLQYEQLRTFGGGTKVEIKRTVAAPSVFIFPPSDEQLKSGTASVVCLLNNFYPREAKVQWKVDNALQSGNSQESVTEQDSKDSTYSLSSTLTLSKADYEKHKVYACEVTHQGLSSPVTKSFNRGEC
notes: also called EGL-ART2; ART2
B2: H240-Kn462/L73-k0//H240-Hl445/L73-k0 (antibody, human IgG1, kappa)
heavy 1: B1 heavy 1 with Y233F, Y234Q, T249V, D269E, T306P, K325D, D326A
heavy 2: B1 heavy 2 with G235A, T249V, S297A, T306P, I331D
light: B1 light
notes: also called EGL-ART6; ART6
B3: H240-Kn456/L73-k0//H240-Hl446/L73-k0 (antibody, human IgG1, kappa)
heavy 1: B1 heavy 1 with Y233F, Y234Q, T249V, D269E, T306P, D326A, A329M, I331E
heavy 2: B1 heavy 2 with G235A, T249V, S297A, T306P, K329M, I331E
light: B1 light
notes: also called EGL-ART4; ART4
B4: H240-Kn498/L73-k0//H240-Hl518/L73-k0 (antibody, human IgG1, kappa)
heavy 1: B1 heavy 1 with Y233F, Y234Q, T249V, D269E, T306P, D326A, A329M
heavy 2: B1 heavy 2 with T249V, S297A, T306P, K329M
light: B1 light
notes: also called EGL-ART12; ART12
B5: H240-Kn125/L73-k0//H240-Hl076/L73-k0 (antibody, human IgG1, kappa)
heavy 1: B1 heavy 1 with Y234Q, D269E, D326A
heavy 2: B1 heavy 2 with K329M
light: B1 light
notes: Anti-human Epiregulin heterodimerized IgG1 Fc variant; also called EGL-ART1; ART1

Columns and labels:
[1] = molecular target: T1, human FcγRIIb extracellular domain; test: SPR Biacore 8K+, antibody captured, FcγR as analyte, steady state affinity model
[2] = molecular target: T2, hFcγRIIaH on hFcγRIIaH-expressing …; test: cell-based or functional assay
[3] = molecular target: T5, human FcγRIIIa F extracellular domain (human, UniProt P08637 17-208); test: SPR Biacore 8K+, antibody captured, FcγR as analyte, 1:1 Langmuir model;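 further: antibodies captured on a streptavidin chip through a biotinylated anti-human Fab kappa reagent, with FcγR extracellular domains injected in pH 7.4 phosphate buffer at 25 °C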
T5 construct: extracellular domain; also called hFcγR IIIa F
T5 sequence (P08637 17-208): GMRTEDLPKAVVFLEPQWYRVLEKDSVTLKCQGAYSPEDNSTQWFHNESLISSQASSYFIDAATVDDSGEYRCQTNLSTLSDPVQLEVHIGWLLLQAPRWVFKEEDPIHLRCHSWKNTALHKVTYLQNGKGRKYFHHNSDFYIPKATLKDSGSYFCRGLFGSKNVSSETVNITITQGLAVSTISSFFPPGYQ
Protocol: (§1) The interaction between the produced antibodies and human FcγRs was analyzed using Biacore 8K+ by the method below. For the running buffer, 50 mM Na-Phosphate, 150 mM NaCl, and 0.05% Tween20 (pH 7.4) was used, and measurement was performed at 25° C. The sensor chip used was a Series S SA chip (GE Healthcare) onto which CaptureSelect Human Fab-kappa Kinetics Biotin Conjugate (Thermo Fisher Scientific) was immobilized. An antibody of interest was captured onto this chip, and each FcγR diluted with the running buffer was allowed to interact with it. The chip was regenerated using 10 mM Glycine-HCl (pH 1.5), and repeatedly used to capture antibodies and perform measurement. The dissociation constants KD (mol/L) of each antibody for FcγRs were calculated using Biacore Insight Evaluation Software, with a steady state affinity model for the dissociation constant for FcγRIIb and a 1:1 Langmuir binding model for the dissociation constants for the other FcγRs (Table 48).

[4] = molecular target: T6, human FcγRIa extracellular domain (human, UniProt P12314 16-292); test: as above
T6 construct: extracellular domain; also called hFcγR Ia; hFcγRIa
T6 sequence (P12314 16-292): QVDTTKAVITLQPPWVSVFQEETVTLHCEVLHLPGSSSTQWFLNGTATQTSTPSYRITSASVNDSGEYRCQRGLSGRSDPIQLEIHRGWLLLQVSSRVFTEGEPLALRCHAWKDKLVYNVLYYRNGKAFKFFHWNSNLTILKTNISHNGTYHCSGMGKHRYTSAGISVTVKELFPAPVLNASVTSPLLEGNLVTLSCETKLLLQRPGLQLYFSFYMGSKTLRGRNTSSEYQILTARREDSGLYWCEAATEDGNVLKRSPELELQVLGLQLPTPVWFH
Protocol: as §1

[5] = molecular target: T3, human FcγRIIa H extracellular domain; test: as above
Protocol: as §1

[6] = molecular target: T4, human FcγRIIa R extracellular domain; test: as above
Protocol: as §1

[7] = molecular target: T7, human FcγRIIIa V extracellular domain (human, UniProt P08637 17-208); test: as above
T7 construct: extracellular domain; also called hFcγR IIIa V
T7 sequence (P08637 17-208 F176V limits assumed): as the sequence (P08637 17-208) above, with F160V counted along it
Protocol: as §1

[8] = molecular target: T5, human FcγRIIIa F extracellular domain; test: SPR Biacore 8K+; KD for FcγRIIb divided by KD for this FcγR;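 further: antibodies captured on an anti-human Fab kappa SA chip with soluble human FcγR ectodomains flowed over, FcγRIIb KD from steady-state fit, other FcγR KD from Langmuir model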
[9] = molecular target: T3, human FcγRIIa H extracellular domain; test: as above
[10] = molecular target: T4, human FcγRIIa R extracellular domain; test: as above
[11] = molecular target: T7, human FcγRIIIa V extracellular domain; test: as above
[12] = molecular target: T5, human FcγRIIIa F extracellular domain; test: SPR Biacore 8K+; KD of G1d divided by KD of this antibody;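 further: antibodies captured on an anti-Fab-kappa streptavidin chip, soluble FcγR ectodomains flowed over, KD by steady-state fit for FcγRIIb and Langmuir kinetic model for the other receptors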
Protocol: as §1

[13] = molecular target: T6, human FcγRIa extracellular domain; test: as above
Protocol: as §1

[14] = molecular target: T3, human FcγRIIa H extracellular domain; test: as above
Protocol: as §1

[15] = molecular target: T1, human FcγRIIb extracellular domain; test: as above
Protocol: as §1

[16] = molecular target: T4, human FcγRIIa R extracellular domain; test: as above
Protocol: as §1

[17] = molecular target: T7, human FcγRIIIa V extracellular domain; test: as above
Protocol: as §1

[18] = molecular target: hFcγRIIIaV on hFcγRIIIaV-expressing Jurkat cells (human, UniProt P08637 17-254); test: cell-based or functional assay
hFcγRIIIaV on hFcγRIIIaV-expressing Jurkat cells, sequence (P08637 17-254, form in doubt): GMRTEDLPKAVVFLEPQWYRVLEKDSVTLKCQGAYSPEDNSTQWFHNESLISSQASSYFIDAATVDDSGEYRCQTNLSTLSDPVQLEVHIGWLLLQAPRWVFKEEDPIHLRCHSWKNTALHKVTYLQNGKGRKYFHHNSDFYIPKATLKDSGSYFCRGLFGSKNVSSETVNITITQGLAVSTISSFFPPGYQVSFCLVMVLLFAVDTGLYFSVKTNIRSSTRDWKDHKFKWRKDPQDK

Row | Binder | Kd [1] | EC50 value (hFcγRIIaH ADCP Reporter Bioassay, Hepa1-6/hEREG target cells) [2] | Kd [3] | Kd [4] | Kd [5] | Kd [6] | Kd [7] | A/I ratio (KD for FcγRIIb divided by KD for each FcγR) [8] | A/I ratio (KD for FcγRIIb divided by KD for each FcγR) [9] | A/I ratio (KD for FcγRIIb divided by KD for each FcγR) [10] | A/I ratio (KD for FcγRIIb divided by KD for each FcγR) [11] | Relative value to KD between G1d and hFcgRs [12] | Relative value to KD between G1d and hFcgRs [13] | Relative value to KD between G1d and hFcgRs [14] | Relative value to KD between G1d and hFcgRs [15] | Relative value to KD between G1d and hFcgRs [16] | Relative value to KD between G1d and hFcgRs [17] | EC50 value (hFcγRIIIaV ADCC Reporter Bioassay, Hepa1-6/hEREG target cells) [18]
1 | B1 | 440 nM | 0.0218 µg/mL | 6.43 nM | 0.0264 nM | 76.4 nM | 33.8 nM | 1.67 nM | 68.4 | 5.8 | 13 | 264 | 460 | 3.4 | 14.7 | 22.8 | 49 | 215 | 0.00135 µg/mL
2 | B2 | 2920 nM | 0.0192 µg/mL | 3 nM | 0.0737 nM | 9.52 nM | 68.9 nM | 1.11 nM | 976 | 307 | 42.4 | 2630 | 987 | 1.2 | 118 | 3.4 | 24.1 | 322 | 0.0015 µg/mL
3 | B3 | 11700 nM | 0.0432 µg/mL | 1.17 nM | 0.0305 nM | 179 nM | 518 nM | 0.775 nM | 9940 | 65.2 | 22.5 | 15000 | 2520 | 2.9 | 6.3 | 0.9 | 3.2 | 462 | 0.000789 µg/mL
4 | B4 | 22100 nM | 0.085 µg/mL | 5.12 nM | 0.0261 nM | 366 nM | 1720 nM | 2.27 nM | 4310 | 60.3 | 12.8 | 9720 | 578 | 3.4 | 3.1 | 0.5 | 1 | 158 | 0.000304 µg/mL
5 | B5 | 12500 nM | 0.0353 µg/mL | 2.53 nM | 0.0302 nM | 264 nM | 1010 nM | 1.11 nM | 4950 | 47.4 | 12.4 | 11300 | 1170 | 3 | 4.3 | 0.8 | 1.6 | 323 | 0.000716 µg/mL
